The record followed here is publication PMC4072508, “Genome-Wide Prediction and Validation of Peptides That Bind Human Prosurvival Bcl-2 Proteins” (PLoS Computational Biology, 2014).

One assay concerns the target T1, Mcl-1 (Homo sapiens, UniProt Q07820).
T1 construct: myc-Mcl-1 SPOT array & FP; made in house
Kind of assay: LUMIER full-length protein interaction. It is filed as binding. As to conditions: LUMIER results for Mcl-1, Z-score relative to Gaussian fit of the data; for z-score 1.2: experiment 1, duplicate 2; for z-score 2.1: experiment 2, duplicate 1; for z-score 2.2: experiment 2, duplicate 2. How it is done:
(§1) The LUMIER assay was carried out as previously described with the following modifications. A stable cell line expressing receptor tagged on the N-terminus with Nanoluc luciferase was created (the prey). […] Each bait construct was transfected into the receptor-luciferase cells in a 96-well format and after 48 hours the cells were lysed and transferred to 384-well plates coated with anti-FLAG. After incubation and washing, luminescence was measured to quantify how much receptor-luciferase was captured by the bait protein. Anti-Flag ELISA signal was used to exclude bait proteins that were not expressed. The experiment was carried out two times, each in duplicate.

The next assay addresses T2, Bcl-xL (Homo sapiens, UniProt Q07817).
T2 construct: myc-Bcl-xL SPOT array & FP; made in house
Briefly: LUMIER full-length protein interaction. The format is binding. As to conditions: LUMIER results for Bcl-xL; for z-score 1.1: experiment 1, duplicate 1; for z-score 1.2: experiment 1, duplicate 2; for z-score 2.1: experiment 2, duplicate 1; for z-score 2.2: experiment 2, duplicate 2. How it is done: as §1

[1] abbreviates: Z-score relative to Gaussian fit of the data.
[2] abbreviates: Z-score of the interaction relative to the Gaussian fit of the data.

Several values for one entry are separate records, joined by “and”; a condition that tells them apart may be missing. Equal entries are not always repeated. Residues, ends and D or L forms follow the SMILES beside them. *: point of attachment. 5FAM = O=C1OC2(c3ccc(O)cc3Oc3cc(O)ccc32)c2ccc(C(=O)*)cc21

T1 sequence (Q07820 with tags, fused parts or gaps): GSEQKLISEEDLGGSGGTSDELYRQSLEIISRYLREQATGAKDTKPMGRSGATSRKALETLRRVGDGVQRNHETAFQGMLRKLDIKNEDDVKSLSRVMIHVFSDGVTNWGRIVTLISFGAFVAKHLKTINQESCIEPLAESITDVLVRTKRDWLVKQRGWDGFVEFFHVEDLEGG
T2 sequence (Q07817 with tags, fused parts or gaps): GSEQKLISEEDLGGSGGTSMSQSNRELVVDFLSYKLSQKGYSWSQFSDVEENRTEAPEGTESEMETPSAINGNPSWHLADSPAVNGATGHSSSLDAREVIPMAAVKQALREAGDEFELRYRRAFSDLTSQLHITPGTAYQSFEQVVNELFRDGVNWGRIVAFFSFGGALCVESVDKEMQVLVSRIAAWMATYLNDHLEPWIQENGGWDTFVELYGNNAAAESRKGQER

On to `CC[C@H](C)[C@H](NC(=O)[C@@H]1CCCN1C(=O)[C@H](CCCNC(=N)N)NC(=O)[C@H](CCCNC(=N)N)NC(=O)[C@@H]1CCCN1C(=O)[C@H](CC(N)=O)NC(=O)[C@H](C)NC(=O)[C@H](CC(C)C)NC(=O)[C@H](CCSC)NC(=O)[C@H](CC(=O)O)NC(=O)[C@H](CO)NC(=O)[C@H](Cc1c[nH]c2ccccc12)NC(=O)[C@H](Cc1c[nH]cn1)NC(=O)[C@H](CCCNC(=N)N)NC(=O)[C@H](CC(C)C)NC(=O)[C@H](CCC(=O)O)NC(=O)[C@H](C)NC(=O)CNC(=O)[C@@H](NC(=O)[C@H](CO)NC(=O)[C@H](CC(N)=O)NC(=O)[C@H](Cc1ccc(O)cc1)NC(=O)CNC(=O)[C@@H](NC(=O)[C@H](Cc1ccccc1)NC(=O)c1ccc2c(c1)C(=O)OC21c2ccc(O)cc2Oc2cc(O)ccc21)C(C)C)[C@@H](C)O)C(=O)N[C@@H](C)C(N)=O` [SYT1] (5FAM-FVGYNSTGAELRHWSDMLANPRRPIA-NH2), for which, at Mcl-1, the “z-score 1.2” value is given as -0.6598, the “z-score 2.1” value is listed as 0.132 and the “z-score 2.2” value is -0.2801. Also, at Bcl-xL (setting [1]), the “z-score 1.1” value was -0.3372, the “z-score 1.2” value was -0.9542, the “z-score 2.1” value came out at 2.574 and the “z-score 2.2” value was 0.6781.

As for ACN9 (LQLHRVLPPDLKSLGDQYVKDEFRRH), in the assay with Mcl-1, the “z-score 1.2” value worked out at 0.7914, the “z-score 2.1” value stood at 1.721 and the “z-score 2.2” value is 2.179. In addition, in the assay with Bcl-xL (setting [1]), the “z-score 1.1” value is listed as 2.487, the “z-score 1.2” value was -0.8795, the “z-score 2.1” value stood at 0.2924 and the “z-score 2.2” value stood at 1.441.

ATP6AP2 (RDASKILVDALQKFADDMYSLYGGNA): in the assay with Mcl-1, the “z-score 1.2” value is 0.9409 and 0.8269; the “z-score 2.1” value was 2.599 and 2.298; the “z-score 2.2” value is 1.567 and 1.468. Moreover, in the assay with Bcl-xL (setting [1]), the “z-score 2.1” value is 1.607 and 2.423.

Turning to BAK1 (SSTMGQVGRQLAIIGDDINRRYDSEF), in the assay with Mcl-1, the “z-score 1.2” value worked out at 6.48, the “z-score 2.1” value is listed as 5.961 and the “z-score 2.2” value was determined as 6.848. In addition, in the assay with Bcl-xL (setting [2]), the “z-score 1.1” value came to 0.8883, the “z-score 1.2” value was determined as 2.921, the “z-score 2.1” value is 1.064 and the “z-score 2.2” value is recorded as 1.82.

BBS10 (RMIVDCVSSHLKKTGDGAKTFIIFLC): the “z-score 2.1” value in the assay with Mcl-1 is 0.6411 and 1.2239. In addition, the “z-score 1.1” value in the assay with Bcl-xL (setting [1]) is 1.141 and 1.702.

In the case of BCL2L11 (MRPEIWIAQELRRIGDEFNAYYARRV), in the assay with Mcl-1, the “z-score 1.2” value turned out to be 9.774, the “z-score 2.1” value came out at 11.6048 and the “z-score 2.2” value was found to be 12.4336.

Take C7orf26 (FDHMVPLVEEINRLADELNPLNASQE): in the assay with Mcl-1, the “z-score 1.2” value is 0.6167, the “z-score 2.1” value was found to be 1.59 and the “z-score 2.2” value came out at 1.598. For the same molecule, in the assay with Bcl-xL (setting [1]), the “z-score 1.1” value was found to be 0.6785, the “z-score 1.2” value is given as 0.5183, the “z-score 2.1” value was determined as 0.5393 and the “z-score 2.2” value amounted to 0.7734.

Turning to CASP8 (PFKKMDFSRNLYDIGEQLDSEDLASL), in the assay with Mcl-1, the “z-score 1.2” value is given as -0.8504, the “z-score 2.1” value was -0.06643 and the “z-score 2.2” value is -0.03009. Besides, in the assay with Bcl-xL (setting [1]), the “z-score 1.1” value was 0.03556, the “z-score 1.2” value is on record as -1.065, the “z-score 2.1” value is 0.3161 and the “z-score 2.2” value was -0.06353.

For the molecule CCDC57 (QAGPVSSGLALRKLGDRVQLLNLLVT), in the assay with Mcl-1, the “z-score 1.2” value was determined as 0.8015, the “z-score 2.1” value is reported as 1.282 and the “z-score 2.2” value stood at 1.811. In addition, in the assay with Bcl-xL (setting [2]), the “z-score 1.1” value is reported as 2.807, the “z-score 1.2” value is 1.916, the “z-score 2.1” value was found to be 0.2364 and the “z-score 2.2” value was 0.8316.

On to COL2A1 (VLLTLLVAAVLRCQGQDVQEAGSCVQ), for which, in the assay with Mcl-1, the “z-score 2.1” value was determined as 1.806 and the “z-score 2.2” value worked out at 2.677. In the assay with Bcl-xL (setting [1]), the “z-score 1.1” value turned out to be 1.515, the “z-score 1.2” value was -1.523, the “z-score 2.1” value was 1.61 and the “z-score 2.2” value turned out to be 2.141.

On to FBXW5 (LTETSLISGNLHRIGDITSCSVLWLN), for which the “z-score 2.1” value with Bcl-xL (setting [1]) was 1.152 and 2.217.
